Here are results for two molecules from doi:10.1101/2022.05.31.494220.

Substitutions are numbered along the chain they refer to. Numbers in names are those of the source.

The target in this assay is peptide encoding HTP-3 closure motif #4 (C. elegans). The assay can be described thus: fluorescence polarisation. For orientation: Fluorescence polarisation rises when a labelled molecule tumbles more slowly, as on binding a larger partner.

B1: HIM-3 (wildtype) (natural protein)
chain: ATKEQIVEHRESEIPIASQWKATFPVDLEIEKNSEMFALRYIKCASAFILDRRGILDEKCFKTRTIDKLLVTAFQSSVPAAKRVSSTFDGLRDAIQQGYLREFAIVFYKKPNEEDINEVFAFRFAYGDEGEIFVSLNNGIDTNESSQELLQAKFVDTDNTKQMFASTIKKLHRCIKKMEPLPQGSDASFRVSYTEKAPKDYTPEGYLLSPMFYTLNQDIRKASIGIVCGGHHKIQMLAASQYLKQDFDLDKTTTLNPNMSIMANQSKRKGRISRDSPYGLSQGITKKNKD
B1: the Kd was determined as 220 nM.

B2: HIM-3^R93Y (natural protein)
chain: B1 chain with R92Y
B2 had a Kd of 690 nM.

The Kd is the constant that tells how readily two partners part at equilibrium.
